Measured values published in patent US20030087411.

Test system: DAKAR-FLAG fusion protein (murine DAKAR residues 1 to 786 fused to FLAG)

Substance | cleavage products on SDS-PAGE / Western blot after in vitro incubation with the caspase
purified recombinant active caspase 3 (Pharmingen) | in vitro incubation of DAKAR with 100 ng caspase 3 resulted in formation of approximately 40 and 45 kDa cleavage products
purified recombinant active caspase 8 (Pharmingen) | incubation of DAKAR with 100 ng caspase 8 resulted in the formation of a 22 kDa cleavage product
